How the values were obtained:
ATF2 = target: T1, ATF2 (UniProt P15336 1-505, limits assumed); test: co-immunoprecipitation from cell lysates, blot probed with anti-IRF1
T1 construct: Tested by co-immunoprecipitation with IRF1; no association
T1 sequence (looked up): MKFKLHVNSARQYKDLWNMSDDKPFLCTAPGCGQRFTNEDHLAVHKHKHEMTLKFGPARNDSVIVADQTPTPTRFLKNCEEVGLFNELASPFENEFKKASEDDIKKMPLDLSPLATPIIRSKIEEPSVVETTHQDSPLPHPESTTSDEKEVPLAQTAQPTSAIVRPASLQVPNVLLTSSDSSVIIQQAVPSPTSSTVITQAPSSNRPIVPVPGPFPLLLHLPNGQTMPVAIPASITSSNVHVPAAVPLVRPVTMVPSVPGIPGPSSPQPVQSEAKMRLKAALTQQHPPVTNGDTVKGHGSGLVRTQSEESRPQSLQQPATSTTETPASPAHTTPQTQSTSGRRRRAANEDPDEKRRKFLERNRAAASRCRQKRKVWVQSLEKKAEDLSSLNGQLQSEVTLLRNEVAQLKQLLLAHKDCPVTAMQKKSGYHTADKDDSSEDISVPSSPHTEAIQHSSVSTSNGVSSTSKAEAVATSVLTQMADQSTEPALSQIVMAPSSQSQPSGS

HAT1 = target: T2, HAT1 (UniProt O14929 2-419, limits assumed); test: as above
T2 construct: Tested by co-immunoprecipitation with IRF1; no association
T2 sequence (looked up): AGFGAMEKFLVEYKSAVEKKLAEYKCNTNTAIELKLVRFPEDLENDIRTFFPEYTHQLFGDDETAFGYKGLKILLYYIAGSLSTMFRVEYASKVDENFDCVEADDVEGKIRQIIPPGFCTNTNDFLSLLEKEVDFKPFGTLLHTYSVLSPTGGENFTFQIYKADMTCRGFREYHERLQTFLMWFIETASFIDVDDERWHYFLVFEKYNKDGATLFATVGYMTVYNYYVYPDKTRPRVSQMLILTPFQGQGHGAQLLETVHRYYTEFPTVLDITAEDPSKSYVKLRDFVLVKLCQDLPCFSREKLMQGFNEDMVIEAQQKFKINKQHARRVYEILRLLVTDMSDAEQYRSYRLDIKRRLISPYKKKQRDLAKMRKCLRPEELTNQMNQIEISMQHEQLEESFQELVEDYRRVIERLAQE

binding result (ATF2): no binding | binding result (HAT1): no binding
B1: Interferon regulatory factor 1 (IRF1) (other, UniProt P10914 1-325, looked up)
chain: MPITRMRMRPWLEMQINSNQIPGLIWINKEEMIFQIPWKHAAKHGWDINKDACLFRSWAIHTGRYKAGEKEPDPKTWKANFRCAMNSLPDIEEVKDQSRNKGSSAVRVYRMLPPLTKNQRKERKSKSSRDAKSKAKRKSCGDSSPDTFSDGLSSSTLPDDHSSYTVPGYMQDLEVEQALTPALSPCAVSSTLPDWHIPVEVVPDSTSDLYNFQVSPMPSTSEATTDEDEEGKLPEDIMKLLEQSEWQPTNVDGKGYLLNEPGVQPTSVYGDFSCKEEPEIDSPGGDIGLSLQRVFTDLKNMDATWLDSLLTPVRLPSIQAIPCAP
notes: Endogenous protein from MonoMac6 lysates, detected with anti-IRF1 on the blot after co-immunoprecipitation
